For the assay, the target named is taxol-stabilized microtubules (polymerized porcine tubulin) (porcine, UniProt P02550 1-451; P02554 1-445).

As usually defined, the Kd is the concentration at which binding is half-saturated. Low readings indicate a tighter complex, high ones a looser complex.

Sequence of taxol-stabilized microtubules (polymerized porcine tubulin) (P02550 whole entry, chain 1 of 2): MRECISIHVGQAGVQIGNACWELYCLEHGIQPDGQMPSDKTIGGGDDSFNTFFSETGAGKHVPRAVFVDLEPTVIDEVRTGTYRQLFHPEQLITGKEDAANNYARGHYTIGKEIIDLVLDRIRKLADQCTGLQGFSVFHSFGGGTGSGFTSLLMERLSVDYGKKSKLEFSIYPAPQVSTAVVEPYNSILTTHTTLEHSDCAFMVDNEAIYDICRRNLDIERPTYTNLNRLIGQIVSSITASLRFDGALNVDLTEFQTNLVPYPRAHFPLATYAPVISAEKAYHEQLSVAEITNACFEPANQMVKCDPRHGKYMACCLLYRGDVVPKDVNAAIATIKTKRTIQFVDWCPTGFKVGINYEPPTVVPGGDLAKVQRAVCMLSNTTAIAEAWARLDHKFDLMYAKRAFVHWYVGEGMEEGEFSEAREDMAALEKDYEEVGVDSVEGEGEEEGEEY
Sequence of taxol-stabilized microtubules (polymerized porcine tubulin) (P02554 whole entry, chain 2 of 2): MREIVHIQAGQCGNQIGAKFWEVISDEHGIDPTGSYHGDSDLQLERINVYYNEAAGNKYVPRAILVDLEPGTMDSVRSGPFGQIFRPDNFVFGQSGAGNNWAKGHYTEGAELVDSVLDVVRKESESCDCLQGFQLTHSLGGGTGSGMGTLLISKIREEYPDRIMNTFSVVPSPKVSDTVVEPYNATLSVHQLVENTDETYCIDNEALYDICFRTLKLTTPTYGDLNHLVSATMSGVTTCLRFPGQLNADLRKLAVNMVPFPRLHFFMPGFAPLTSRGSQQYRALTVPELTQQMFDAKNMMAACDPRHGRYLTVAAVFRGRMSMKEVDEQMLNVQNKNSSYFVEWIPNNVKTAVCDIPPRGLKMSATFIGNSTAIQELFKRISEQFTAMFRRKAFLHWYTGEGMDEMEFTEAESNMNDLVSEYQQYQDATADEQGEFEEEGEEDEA

B1: 6xHis-tagged CC1ΔC223 (cytosolic N-terminal part of COMPANION OF CELLULOSE SYNTHASE 1, residues 1-120) (domain or fragment)
chain: MHAKTDSEVTSLAASSPARSPRRPVYYVQSPSRDSHDGEKTATSFHSTPVLSPMGSPPHSHSSMGRHSRESSSSRFSGSLKPGSRKVNPNDGSKRKGHGGEKQWKECAVIEEEGLLDDGD
Turning to B1, the dissociation constant (Kd) is 6.9 µM.

B2: 6xHis-tagged CC1ΔC223YYAA (domain or fragment)
chain: MHAKTDSEVTSLAASSPARSPRRPVAAVQSPSRDSHDGEKTATSFHSTPVLSPMGSPPHSHSSMGRHSRESSSSRFSGSLKPGSRKVNPNDGSKRKGHGGEKQWKECAVIEEEGLLDDGD
B2 showed a dissociation constant Kd of 16.3 µM.

Values taken from publication PMC6382854 (2019).
